Assay results: patent US20180094053A1 (XOMA US, published 2018)
Numbering of substitutions follows the chain as printed. Where two headings read alike, the source gives them in different places.

T1: Mouse IL-2 (mouse, UniProt P04351 21-169)
T1 sequence (looked up): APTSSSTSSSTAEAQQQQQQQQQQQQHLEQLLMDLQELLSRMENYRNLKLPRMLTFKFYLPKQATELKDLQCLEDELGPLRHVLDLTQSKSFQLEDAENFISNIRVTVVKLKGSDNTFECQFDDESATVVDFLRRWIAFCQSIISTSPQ

T2: Rabbit IL-2 (rabbit, UniProt O77620 21-153, limits assumed)
T2 sequence (looked up): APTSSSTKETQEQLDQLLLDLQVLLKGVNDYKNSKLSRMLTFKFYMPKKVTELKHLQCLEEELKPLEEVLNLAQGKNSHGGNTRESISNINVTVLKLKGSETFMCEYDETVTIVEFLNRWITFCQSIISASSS

T3: Rat IL-2 (rat, UniProt P17108 21-155)
T3 sequence (looked up): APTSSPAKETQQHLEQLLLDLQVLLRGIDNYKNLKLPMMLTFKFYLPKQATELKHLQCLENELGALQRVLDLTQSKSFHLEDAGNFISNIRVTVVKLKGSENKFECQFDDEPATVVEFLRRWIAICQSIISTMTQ

T4: CHOk1-IL2Ralpha
T4 construct: clone number not given; also called CHO/Rα; CHO/IL-2 Rα
T4 chain: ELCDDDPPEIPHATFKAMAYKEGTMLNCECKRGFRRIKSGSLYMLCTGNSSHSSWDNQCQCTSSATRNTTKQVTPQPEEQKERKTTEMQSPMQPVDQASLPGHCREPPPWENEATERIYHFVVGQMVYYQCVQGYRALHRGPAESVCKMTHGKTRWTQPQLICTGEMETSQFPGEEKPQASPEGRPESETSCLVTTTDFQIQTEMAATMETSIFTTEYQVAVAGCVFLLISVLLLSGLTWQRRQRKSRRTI

T5: human IL-2 Rβγ (IL-2 Rβ and γc) on cells (human, UniProt P14784 27-551; P31785 23-369)
T5 construct: whole, on cells; on CD25-depleted human primary NK cells in the pSTAT5 assay; also called CHO/Rβγ; CHO/IL-2 Rβγ (#20-21)
T5 sequence (looked up) 1: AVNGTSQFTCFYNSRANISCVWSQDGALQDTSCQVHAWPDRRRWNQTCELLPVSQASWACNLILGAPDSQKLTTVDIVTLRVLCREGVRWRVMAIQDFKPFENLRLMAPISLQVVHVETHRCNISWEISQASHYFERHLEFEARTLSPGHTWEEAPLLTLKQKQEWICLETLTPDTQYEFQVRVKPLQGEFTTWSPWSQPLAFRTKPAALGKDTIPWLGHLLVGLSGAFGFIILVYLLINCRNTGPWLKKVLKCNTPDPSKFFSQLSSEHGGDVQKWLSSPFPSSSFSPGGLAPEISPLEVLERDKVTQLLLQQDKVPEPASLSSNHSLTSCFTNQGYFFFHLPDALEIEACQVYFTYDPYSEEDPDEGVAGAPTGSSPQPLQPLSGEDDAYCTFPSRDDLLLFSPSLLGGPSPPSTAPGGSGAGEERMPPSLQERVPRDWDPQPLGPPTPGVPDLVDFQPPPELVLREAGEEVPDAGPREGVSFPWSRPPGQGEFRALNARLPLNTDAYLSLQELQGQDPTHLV
T5 sequence (looked up) 2: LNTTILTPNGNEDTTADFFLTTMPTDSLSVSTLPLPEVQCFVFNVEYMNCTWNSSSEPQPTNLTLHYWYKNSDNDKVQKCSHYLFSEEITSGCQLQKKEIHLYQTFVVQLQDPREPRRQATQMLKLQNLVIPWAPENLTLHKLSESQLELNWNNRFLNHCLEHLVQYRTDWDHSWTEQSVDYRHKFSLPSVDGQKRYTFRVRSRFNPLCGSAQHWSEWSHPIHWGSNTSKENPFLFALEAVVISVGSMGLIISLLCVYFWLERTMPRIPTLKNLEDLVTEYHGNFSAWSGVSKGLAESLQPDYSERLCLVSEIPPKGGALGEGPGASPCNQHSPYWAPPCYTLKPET

B1: XPA.92.099 (antibody, V domains shown)
VH: QVQLVESGGGLVKPGRSLRLSCAASGFTFNRYAMSWVRQAPGKGLEWVAMISFDGGNQYYTDSVSGRFTISRDNSKTTLFLQMDSLRTEDTAVYYCVRSPAGDWVAYFDYWGQGTLVTVSS
VL: DIQMTQSPSSLSASIGDRVTIPCQASEDISNHLSWYQQKPGKAPKPLIFDASDLETGVPSRFSGSGSGTDFALTISSLRPDDFATYYCHQYHDYPSYTFGHGTKLEIKR
notes: Tested as purified full-length human IgG; also called mAb99; clone 99
B2: XPA.92.041 (antibody, V domains shown)
VH: EVQLVQSGAEVKKPGESLKISCKGSGYNFDTYWIGWVRQMPGRGLEWMGTIYPADSDTRYSPSFQGQVTTSADKSISTAYLQWGSLRASDTAMYYCARFSSSAYDIWGQGTMVTVSS
VL: SYELTQPPSVSVSPGQTARITCSGDALPRQFAYWYQQKPGQAPVLVIYKDTERPSGIPERFSGSSSGTTVTLTISGVQAEDEADYYCQSADSSGTYHVFGGGTQLTVLG
notes: Tested as purified full-length human IgG
B3: XPA.92.042 (antibody, V domains shown)
VH: B2 VH with A9T, P14A, E16D, T70M
VL: SYELTQPPSVSVSPGQTARITCSGDALPRKFAYWYQQKSGQAPVLVIYQDTKRPSGIPERFSGSSSGTTVTLTISDVQAEDDADYYCQSADRSDSYVFGAGTKLTVLG
notes: as for B2

Columns and labels:
[1] = target: T1, Mouse IL-2; assay: listed for comparison in the SPR species cross-reactivity table
[2] = target: T6, Recombinant human IL-2 (human, UniProt P60568 21-153); assay: cell-based or functional assay
[3] = target: T6, Recombinant human IL-2; assay: listed for comparison in the SPR table; method for this antibody not described
[4] = target: T2, Rabbit IL-2; assay: SPR (Biacore 4000), IgG captured on anti-human IgG Fc, IL-2 30 nM to 1 nM; affinity estimate
Method: (§1) Antibody affinities were measured by SPR using the Biacore 4000 with a standard capture methodology. Briefly, anti-human IgG (Fc specific) from an anti-human antibody capture kit (Biacore) was immobilized onto spots 1, 2, 4, and 5 of all four flow cells of a CM-5 sensor chip by amine coupling according to the manufacturer's instructions. Running buffer was HBS-EP+ with 1% BSA. […] Data were analyzed using the Biacore 4000 Evaluation software.
(§2) These sequences were imported into vector NTI® (Lifetech) and aligned using the alignx tool.

[5] = target: T1, Mouse IL-2; assay: SPR (Biacore 4000), IgG captured on anti-human Fc, IL-2 injected
[6] = target: T3, Rat IL-2; assay: as above
[7] = target: T6, Recombinant human IL-2; assay: cell-based or functional assay; remark: listed apart in the source
[8] = target: T6, Recombinant human IL-2; assay: cell-based or functional assay; remark: listed apart in the source
[9] = target: T6, Recombinant human IL-2; assay: cell-based or functional assay; remark: listed apart in the source
[10] = target: T6, Recombinant human IL-2; assay: cell-based or functional assay; remark: listed apart in the source
[11] = target: T6, Recombinant human IL-2; assay: SPR (Biacore 4000), IgG captured on anti-human IgG Fc, rhIL-2 0.11-10 nM
Method: as §1

[12] = target: T6, Recombinant human IL-2; assay: cell-based or functional assay; remark: listed apart in the source
[13] = target: T1, Mouse IL-2; assay: SPR (Biacore 4000), IgG captured on anti-human IgG Fc, IL-2 30 nM to 1 nM; affinity estimate
Method: as §1, §2

[14] = target: T3, Rat IL-2; assay: as above
Method: as §1, §2

[15] = target: T4, CHOk1-IL2Ralpha; assay: flow cytometry, IgG binding (MFI); antibody titrated on CHOk1-IL2Ralpha cells without IL2
Method: (§3) After phage-derived antibody fragments were reformatted into full-length human IgGs, the purified antibodies were screened on CHO/Rα, CHO/Rβ, CHO/Rβγ, and parental CHO-K1 cells grown and stained as described above. […] This was allowed to incubate at 4° C. for 1 to 1.5 hours. Bound antibody was detected by the addition of anti-human heavy chain and light chain (Jackson Immuno Research #109-136-088) at 1:1000 and incubating at 4° C. for 30 minutes to 1 hour. Samples were analyzed using BD FACs Canto flow cytometer.

[16] = target: T5, human IL-2 Rβγ (IL-2 Rβ and γc) on cells; assay: flow cytometry, IgG binding (MFI); antibody titrated on CHOk1-IL2Rbeta-gamma (20-21) cells without IL2
Method: as §3

Molecule	Kd [4] [nM]	EC50 of IL-2-induced pSTAT5a,b in CD25-depleted human primary NK cells with 100 nM antibody [7] [pM]	EC50 of IL-2-induced pSTAT5a,b in NK-92 cells with 100 nM antibody [7] [pM]	pSTAT5a,b Ratio of EC50s (Rαβγ/Rβγ), murine cells [8]	pSTAT5a,b fold EC50 shift, CTLL-2 (muRαβγ) [8] [fold]	pSTAT5a,b fold EC50 shift, Mouse Primary NK cells (muβγ) [8] [fold]	Fold EC50 shift of IL-2-induced proliferation, BaF3/IL-2 HuRβγ [9] [fold]	Fold EC50 shift of IL-2-induced proliferation, NK92 (huRαβγ) [9] [fold]	Ratio (huRαβγ/Rβγ) of fold EC50 shifts, proliferation [9]	Fold EC50 shift of IL-2-induced proliferation, CTLL-2 (muRαβγ) [10] [fold]	Kd [11] [nM]	koff [11] [s⁻¹]	kon [11] [M⁻¹ s⁻¹]	pSTAT5a,b Ratio of EC50s (Rαβγ/Rβγ), human cells [12]	pSTAT5a,b fold EC50 shift, Human Primary NK cells (huRβγ) [12] [fold]	pSTAT5a,b fold EC50 shift, NK92 (huRαβγ) [12] [fold]	Kd [13] [nM]	Kd [14] [nM]	binding result [15]	EC50 of IL-2-induced pSTAT5a,b in mouse primary NK cells with 100 nM antibody [7] [pM]	further results
MAB602 (antibody)	–	–	–	–	–	–	–	–	–	–	–	–	–	–	–	–	–	–	–	–	Kd [1]: 10 nM; EC50 of IL-2-induced pSTAT5a,b in NK-92 cells with 100 nM antibody [2]: 900 pM; EC50 of IL-2-induced pSTAT5a,b in mouse primary NK cells with 100 nM antibody [2]: 361 pM; Kd [3]: 0.12 nM
B1	0.09	3050	463	17	293	17	2.4	22	9	54	0.044	0.00024	5.5e+06	21	24	495	–	–	–	–	binding result [5]: no binding (tested: IL-2 injected from 30 nM to 1 nM); binding result [6]: no binding (tested: IL-2 injected from 30 nM to 1 nM)
B2	0.5	4520	1150	34	404	12	3.9	35	9	58	0.058	0.00032	5.6e+06	35	35	1230	40	1	no binding	1350	binding result [16]: no binding
B3	0.6	5120	1700	57	793	14	5	52	10	156	0.028	0.00025	8.9e+06	45	41	1860	10	6	no binding	1660	binding result [16]: no binding
